{"source": "patent US20200347130A1", "about": "(JIANGSU HENGRUI MEDICINE, published 2020)", "binders": {"B1": {"name": "h1719-010 (antibody, V domains shown)", "VH": "EVTLKESGPVLVKPTETLTLTCTVSGFSLSSYGVSWVRQPPGKGLEWLGVIWGDGNTNYHSVLISRLTISKDTSKSQVVLTLTNMDPVDTATYYCAKQNYYGSRYGYPIDYWGQGTTVTVSS", "VL": "DIQMTQSPSSVSASVGDRVTITCKATQDVGTAVAWYQQKPGKAPKLLIYWASTRHTGVPSRFSGSGSGTDFTLTISSLQPEDFATYYCQQYGSSVLTFGGGTKVEIK", "notes": "Only variable regions are tied to this name"}}, "key": {"[1]": {"target": "T1, CD96 extracellular region with His tag (CD96-His) (human, UniProt P40200 22-519)", "T1 construct": "also called CD96-ECD-His; Bio-CD96-His (biotin-labelled form)", "T1 sequence": "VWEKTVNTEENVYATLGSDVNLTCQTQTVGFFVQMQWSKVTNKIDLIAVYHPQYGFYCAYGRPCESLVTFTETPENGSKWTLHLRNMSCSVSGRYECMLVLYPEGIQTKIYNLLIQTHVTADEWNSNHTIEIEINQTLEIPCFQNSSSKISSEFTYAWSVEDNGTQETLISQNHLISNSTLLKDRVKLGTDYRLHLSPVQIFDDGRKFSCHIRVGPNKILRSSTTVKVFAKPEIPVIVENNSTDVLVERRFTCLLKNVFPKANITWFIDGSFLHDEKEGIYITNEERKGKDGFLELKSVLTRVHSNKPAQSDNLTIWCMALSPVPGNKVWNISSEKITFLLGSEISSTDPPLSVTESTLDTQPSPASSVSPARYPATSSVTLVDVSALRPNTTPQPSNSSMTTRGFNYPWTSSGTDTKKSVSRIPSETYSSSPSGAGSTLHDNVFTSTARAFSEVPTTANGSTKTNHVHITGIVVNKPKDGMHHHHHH", "experiment": "blocking cell ELISA: antibody pre-mixed with Bio-CD96-His, added to fixed CD155-CHO cells, HRP-streptavidin, OD450; blocked ligand: human CD155 on CHO cells", "procedure": "CD155-CHO cells (constructed by Shanghai Hengrui) were seeded in 96-well culture plates at a density of 9×10⁴/100 μL/well and cultured overnight. After aspirating the supernatant, the plate was washed once with PBS, 100 μl/well of immunostaining fixation solution (Biyuntian, Cat No. P0098) was added and fixed for one hour at room temperature, and the plate was washed three times with PBS. After discarding the liquid, 250 μl/well of 5% skim milk (BD, Cat No. 232100) blocking solution diluted with PBS was added, and the plate was blocked in an incubator at 37° C. for 2.5 hours. After blocking, the blocking solution was discarded, subsequently, the plate was washed 4 times with PBST buffer (pH 7.4 PBS containing 0.05% tween-20). […] The absorption value was read at 450 nm with a NOVOStar microplate reader, and the EC50 value of the effect of CD96 antibody on blocking the binding between the antigens and CD155-CHO cells was calculated (see FIG. 2 and Table 16)."}, "[2]": {"target": "T2, Biotinylated CD96 antigen (human, UniProt P40200-2 22-503, limits assumed, biotinylated)", "T2 sequence (looked up)": "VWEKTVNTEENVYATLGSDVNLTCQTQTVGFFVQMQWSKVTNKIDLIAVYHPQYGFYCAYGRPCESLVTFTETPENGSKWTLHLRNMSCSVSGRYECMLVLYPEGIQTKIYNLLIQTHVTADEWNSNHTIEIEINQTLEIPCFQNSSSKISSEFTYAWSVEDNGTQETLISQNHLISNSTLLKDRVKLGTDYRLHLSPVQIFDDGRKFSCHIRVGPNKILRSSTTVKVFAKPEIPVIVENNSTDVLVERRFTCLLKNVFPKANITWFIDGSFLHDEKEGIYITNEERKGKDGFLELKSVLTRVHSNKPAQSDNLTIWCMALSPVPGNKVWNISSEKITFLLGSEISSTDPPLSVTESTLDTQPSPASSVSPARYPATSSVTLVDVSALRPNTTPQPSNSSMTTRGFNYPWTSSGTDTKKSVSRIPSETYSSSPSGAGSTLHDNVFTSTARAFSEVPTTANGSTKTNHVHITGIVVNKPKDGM", "experiment": "competition ELISA: antibody B pre-incubated with biotinylated CD96 antigen, added to a plate coated with antibody A, HRP-streptavidin, OD450; competitor: coated h1718-012", "procedure": "Competitive assays of different antibodies binding to CD96 protein were used to classify binding epitopes of the antibodies. The specific experimental methods are as follows:\nAntibody A was diluted to a concentration of 2 μg/ml with PBS buffer (Shanghai Yuanpei Biotechnology Co., Ltd. Cat No. B320), pH 7.4, added to a 96-well microtiter plate (Corning, Cat No. CLS3590-100EA) at a volume of 50 μl/well, and coated at 4° C. overnight. After discarding the liquid, 250 μl/well of 5% skim milk (BD skim milk, Cat No. 232100) blocking solution diluted with PBS was added, and the plate was incubated at 37° C. for 3 hours. After blocking, the blocking solution was discarded, and the plate was washed 5 times with PBST buffer (pH 7.4 PBS containing 0.05% tween-20) and stored for later use. Antibody B was diluted to 40 μg/ml and 8 μg/ml with 1% BSA, and Biotinylated CD96 antigen was simultaneously diluted to 4 μg/mL. Subsequently, antibody B and antigen were mixed in a 1:1 volume ratio, pre-incubated at 37° C. for 45 minutes, added into the enzyme plate coated with antibody A, thus incubating the plate in an incubator at 37° C. for 1.5 hours. […] The absorption value was read at 450 nm with a NOVOStar microplate reader, and the OD value was used to determine whether A and B CD96 antibodies compete with each other. […]"}}}
{"binder": "B1", "values": [{"measurement": "IC50 (read off the curve)", "setting": "[1]", "result": "~0.6", "unit": "nM"}, {"measurement": "IC50 (read off the curve)", "setting": "[2]", "result": "~0.6", "unit": "nM"}]}
